*1 amine or outer side, *2 acyl side, *3 side chain or, on linkers, in order; H or OH if unused. Bridges are numbered along the chain shown (N, C = ends). Where no end group is shown, it is not given here. [ ]: non-standard residue; d: D form. TBMB = c1c(C[*:1])cc(C[*:3])cc1C[*:2]; hArg = N=C(N)NCCCC[C@H](N)C(=O)O; Aze = O=C(O)[C@@H]1CCN1; Sar = CNCC(=O)O
B1: 06-256 (peptide)
peptide: ACQKFESRCRVDTRYCA-NH2
modifications: linker 2-9-16 via TBMB
notes: Synthetic bicyclic peptide, 6 x 6, made on Rink amide resin
B2: 06-259-02 (peptide)
peptide: ACNTWNPWCPWDAPLCA-NH2
modifications: linker 2-9-16 via TBMB
notes: as for B1
B3: 06-259-04 (peptide)
peptide: ACNYWNPWCPWDAPLCA-NH2
modifications: linker 2-9-16 via TBMB
notes: as for B1
B4: 06-259-01 (peptide)
peptide: ACNHWNPWCSVEPPVCA-NH2
modifications: linker 2-9-16 via TBMB
notes: as for B1
B5: 06-259-03 (peptide)
peptide: ACNHWNPWCSADPPICA-NH2
modifications: linker 2-9-16 via TBMB
notes: as for B1
B6: 06-254 (peptide)
peptide: ACKNYWNPCDLVTISCA-NH2
modifications: linker 2-9-16 via TBMB; N-terminus assumed
SMILES: CC[C@H](C)[C@@H]1NC(=O)[C@H]([C@@H](C)O)NC(=O)[C@H](C(C)C)NC(=O)[C@H](CC(C)C)NC(=O)[C@H](CC(=O)O)NC(=O)[C@@H]2CSCc3cc(cc(c3)CSC[C@@H](C(=O)N[C@@H](C)C(N)=O)NC(=O)[C@H](CO)NC1=O)CSC[C@H](NC(=O)[C@H](C)N)C(=O)N[C@@H](CCCCN)C(=O)N[C@@H](CC(N)=O)C(=O)N[C@@H](Cc1ccc(O)cc1)C(=O)N[C@@H](Cc1c[nH]c3ccccc13)C(=O)N[C@@H](CC(N)=O)C(=O)N1CCC[C@H]1C(=O)N2
notes: as for B1
B7: 06-254-02 (peptide)
peptide: ACKNYWNPCDLIPGPCA-NH2
modifications: linker 2-9-16 via TBMB; N-terminus assumed
SMILES: CC[C@H](C)[C@@H]1NC(=O)[C@H](CC(C)C)NC(=O)[C@H](CC(=O)O)NC(=O)[C@@H]2CSCc3cc(cc(c3)CSC[C@@H](C(=O)N[C@@H](C)C(N)=O)NC(=O)[C@@H]3CCCN3C(=O)CNC(=O)[C@@H]3CCCN3C1=O)CSC[C@H](NC(=O)[C@H](C)N)C(=O)N[C@@H](CCCCN)C(=O)N[C@@H](CC(N)=O)C(=O)N[C@@H](Cc1ccc(O)cc1)C(=O)N[C@@H](Cc1c[nH]c3ccccc13)C(=O)N[C@@H](CC(N)=O)C(=O)N1CCC[C@H]1C(=O)N2
notes: as for B1
B8: 06-255 (peptide)
peptide: ACRNYWNPCTLINITCA-NH2
modifications: linker 2-9-16 via TBMB
notes: as for B1
B9: 06-254-03 (peptide)
peptide: ACKNYWNPCDLVMDTCA-NH2
modifications: linker 2-9-16 via TBMB; N-terminus assumed
SMILES: CSCC[C@@H]1NC(=O)[C@H](C(C)C)NC(=O)[C@H](CC(C)C)NC(=O)[C@H](CC(=O)O)NC(=O)[C@@H]2CSCc3cc(cc(c3)CSC[C@@H](C(=O)N[C@@H](C)C(N)=O)NC(=O)[C@H]([C@@H](C)O)NC(=O)[C@H](CC(=O)O)NC1=O)CSC[C@H](NC(=O)[C@H](C)N)C(=O)N[C@@H](CCCCN)C(=O)N[C@@H](CC(N)=O)C(=O)N[C@@H](Cc1ccc(O)cc1)C(=O)N[C@@H](Cc1c[nH]c3ccccc13)C(=O)N[C@@H](CC(N)=O)C(=O)N1CCC[C@H]1C(=O)N2
notes: as for B1
B10: 06-257 (peptide)
peptide: ACPLSDTLCYRRMPPCA-NH2
modifications: linker 2-9-16 via TBMB
notes: as for B1
B11: 06-258 (peptide)
peptide: ACPYPFRCLHENLCA-NH2
modifications: linker 2-8-14 via TBMB
notes: Synthetic bicyclic peptide, 5 x 5, made on Rink amide resin
B12: 06-259 (peptide)
peptide: ACNTWNPWCGWVGGFCA-NH2
modifications: linker 2-9-16 via TBMB
notes: as for B1
B13: 06-261 (peptide)
peptide: ACNNFPFRCVYYPDICA-NH2
modifications: linker 2-9-16 via TBMB
notes: as for B1
B14: Ac-(06-259-02)-Sar3-(DArg2) (peptide)
peptide: Ac-CNTWNPWCPWDAPLCA[Sar][Sar][Sar][dR][dR]-NH2
modifications: linker 1-8-15 via TBMB
SMILES: CC(=O)N[C@H]1CSCc2cc3cc(c2)CSC[C@H](NC(=O)[C@H](Cc2c[nH]c4ccccc24)NC(=O)[C@@H]2CCCN2C(=O)[C@H](CC(N)=O)NC(=O)[C@H](Cc2c[nH]c4ccccc24)NC(=O)[C@H]([C@@H](C)O)NC(=O)[C@H](CC(N)=O)NC1=O)C(=O)N1CCC[C@H]1C(=O)N[C@@H](Cc1c[nH]c2ccccc12)C(=O)N[C@@H](CC(=O)O)C(=O)N[C@@H](C)C(=O)N1CCC[C@H]1C(=O)N[C@@H](CC(C)C)C(=O)N[C@H](C(=O)N[C@@H](C)C(=O)N(C)CC(=O)N(C)CC(=O)N(C)CC(=O)N[C@H](CCCNC(=N)N)C(=O)N[C@H](CCCNC(=N)N)C(N)=O)CSC3
notes: Synthetic bicyclic peptide with solubilising extension, made on Rink amide resin; also called Bicycle 3
B15: Ac-(06-255) (peptide)
peptide: Ac-CRNYWNPCTLINITC-NH2
modifications: linker 1-8-15 via TBMB
notes: Synthetic bicyclic peptide without the terminal alanines, made on Rink amide resin
B16: Ac-(06-550)-Sar3-(DArg2) Aze3HArg5 (peptide)
peptide: Ac-CSF[Aze]Y[hArg]CVYYPDICA[Sar][Sar][Sar][dR][dR]-NH2
modifications: linker 1-7-14 via TBMB
notes: Synthetic bicyclic peptide, 5 x 6, made on Rink amide resin; also called Bicycle 1
B17: Ac-(06-255)-Sar3-(DArg2) (peptide)
peptide: Ac-CRNYWNPCTLINITCA[Sar][Sar][Sar][dR][dR]-NH2
modifications: linker 1-8-15 via TBMB
SMILES: CC[C@H](C)[C@@H]1NC(=O)[C@H](CC(C)C)NC(=O)[C@H]([C@@H](C)O)NC(=O)[C@@H]2CSCc3cc(cc(c3)CSC[C@@H](C(=O)N[C@@H](C)C(=O)N(C)CC(=O)N(C)CC(=O)N(C)CC(=O)N[C@H](CCCNC(=N)N)C(=O)N[C@H](CCCNC(=N)N)C(N)=O)NC(=O)[C@H]([C@@H](C)O)NC(=O)[C@H]([C@@H](C)CC)NC(=O)[C@H](CC(N)=O)NC1=O)CSC[C@H](NC(C)=O)C(=O)N[C@@H](CCCNC(=N)N)C(=O)N[C@@H](CC(N)=O)C(=O)N[C@@H](Cc1ccc(O)cc1)C(=O)N[C@@H](Cc1c[nH]c3ccccc13)C(=O)N[C@@H](CC(N)=O)C(=O)N1CCC[C@H]1C(=O)N2
notes: Synthetic bicyclic peptide with solubilising extension, made on Rink amide resin
B18: Ac-(06-550)-Sar3-(DArg2) (peptide)
peptide: Ac-CSFPYRCVYYPDICA[Sar][Sar][Sar][dR][dR]-NH2
modifications: linker 1-7-14 via TBMB
notes: Synthetic bicyclic peptide, 5 x 6, made on Rink amide resin

What follows are binders tested against T1, human plasma kallikrein (human, UniProt P03952 20-638) (assay: enzyme inhibition assay, fluorogenic substrate Z-PheArg-AMC).
T1 construct: Enzyme used in the Ki assays; also called human kallikrein; PK
T1 sequence (P03952 20-638 limits assumed): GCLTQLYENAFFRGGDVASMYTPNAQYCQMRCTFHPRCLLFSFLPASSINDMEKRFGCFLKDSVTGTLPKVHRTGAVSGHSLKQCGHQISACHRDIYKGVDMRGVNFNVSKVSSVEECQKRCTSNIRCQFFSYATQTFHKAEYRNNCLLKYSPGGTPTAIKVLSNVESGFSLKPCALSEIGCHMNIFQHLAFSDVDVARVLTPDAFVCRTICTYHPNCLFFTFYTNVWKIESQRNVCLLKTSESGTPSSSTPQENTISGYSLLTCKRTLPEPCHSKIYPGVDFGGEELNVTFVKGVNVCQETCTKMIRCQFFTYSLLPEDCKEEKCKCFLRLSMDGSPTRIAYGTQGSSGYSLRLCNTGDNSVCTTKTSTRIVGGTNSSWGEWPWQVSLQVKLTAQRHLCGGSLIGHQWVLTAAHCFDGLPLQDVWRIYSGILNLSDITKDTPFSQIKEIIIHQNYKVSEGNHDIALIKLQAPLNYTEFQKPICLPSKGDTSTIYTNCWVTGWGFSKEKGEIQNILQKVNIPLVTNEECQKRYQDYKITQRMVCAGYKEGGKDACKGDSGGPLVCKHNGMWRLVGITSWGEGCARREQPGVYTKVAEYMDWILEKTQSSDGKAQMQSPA
Method: (§1) Functional enzyme assays were conducted in 10 mM Tris HCl, 150 mM NaCl, 10 mM MgCl₂, 1 mM CaCl₂ and 1 mg/mL BSA (all Sigma UK) pH 7.4 at 25° C. in solid black 96 or 384 well plates. […] Release of AMC was measured using a Pherastar FS (BMG Labtech), excitation 360 nm, emission 460 nm. The rate of the linear phase of the reaction, typically 5 to 45 minutes, was calculated in MARS data analysis software (BMG labtech). The rate was then used to calculate the IC₅₀ and Kᵢ in Prism (GraphPad). A four parameter inhibition non-linear regression equation was used to calculate the IC₅₀. The One site-fit Kᵢ equation used to calculate the Kᵢ, constraining the Kᵢ to the Kₘ for the substrate which is 150 μM for the human enzyme, and 200 μM for the rat orthologue. All Kᵢ/IC₅₀ values are the mean of at least two independent experiments, and at least three for peptides with Kᵢ values lower than 1 nM. For rabbit kallikrein, between 7 to 14 pM enzyme was employed, with 33 μM substrate with a Kₘ of 50 μM.
Work on B1 yielded a Ki of 6.6 nM.
In the case of B2, the Ki is reported as 2.3 nM.
B3 showed a Ki of 3.4 nM.
Work on B4 yielded a Ki of 2.4 nM.
Binder B5 has a Ki of 1.4 nM.
With B6 the Ki was 5.3 nM.
Binder B7 has a Ki of 0.5 nM.
In the case of B8, the Ki is reported as 3.4 nM.
With B9 the Ki was 1.4 nM.
For B10, the Ki was 36.1 nM.
In the case of B11, the Ki is reported as 4.3 nM.
B12 was tested, and the Ki was 20.1 nM.
B13 showed a Ki of 0.4 nM.

Each binder was assayed against T2, rabbit plasma kallikrein (rabbit, UniProt G1T127 20-390; G1T127 391-629, The active enzyme is two chains, heavy and catalytic light, joined by a disulfide after cleavage at Arg390-Ile391. The letters do not carry the natural glycosylation.) in the same assay as above.
T2 construct: also called rabbit kallikrein
T2 sequence (heavy, as listed by the source limits assumed, form in doubt, chain 1 of 2): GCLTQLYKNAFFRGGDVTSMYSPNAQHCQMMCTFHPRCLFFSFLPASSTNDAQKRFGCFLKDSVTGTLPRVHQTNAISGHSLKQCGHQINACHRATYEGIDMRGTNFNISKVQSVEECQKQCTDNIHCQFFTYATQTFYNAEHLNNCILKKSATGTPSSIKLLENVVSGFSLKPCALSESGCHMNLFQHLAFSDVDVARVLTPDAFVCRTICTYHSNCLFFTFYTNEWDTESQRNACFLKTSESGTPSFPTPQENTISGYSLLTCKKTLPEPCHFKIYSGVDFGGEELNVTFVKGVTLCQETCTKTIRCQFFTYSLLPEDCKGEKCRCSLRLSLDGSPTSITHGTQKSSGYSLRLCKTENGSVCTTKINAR
T2 sequence (light, as listed by the source limits assumed, form in doubt, chain 2 of 2): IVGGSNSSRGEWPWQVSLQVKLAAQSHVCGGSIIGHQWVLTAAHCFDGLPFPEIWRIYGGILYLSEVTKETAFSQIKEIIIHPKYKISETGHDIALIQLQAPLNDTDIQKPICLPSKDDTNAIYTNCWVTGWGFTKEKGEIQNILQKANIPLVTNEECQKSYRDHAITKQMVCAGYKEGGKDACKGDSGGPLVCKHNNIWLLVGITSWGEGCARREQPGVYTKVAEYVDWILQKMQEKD
Method: as §1
B1 was tested, and the Ki was 1460 nM.
B2 was tested, and the Ki was 1450 nM.
Work on B6 yielded a Ki of 280 nM.
B8 gave a Ki of 342 nM.
B11 gave a Ki of 331 nM.
B13 gave a Ki of 1040 nM.

What follows are binders tested against T3, rat plasma kallikrein (rat, UniProt P14272 391-638) in the same assay as above.
T3 construct: domain: catalytic domain; Expressed and purified in house; also called rat kallikrein; rPK
T3 sequence (P14272 391-638 limits assumed): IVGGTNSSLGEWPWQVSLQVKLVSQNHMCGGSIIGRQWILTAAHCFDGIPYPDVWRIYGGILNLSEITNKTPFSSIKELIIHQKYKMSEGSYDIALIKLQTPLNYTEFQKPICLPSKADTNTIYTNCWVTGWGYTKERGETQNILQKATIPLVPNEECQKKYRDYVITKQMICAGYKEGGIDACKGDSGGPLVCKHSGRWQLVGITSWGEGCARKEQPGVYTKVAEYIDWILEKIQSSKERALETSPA
Method: as §1
For B1, the Ki was 2780 nM.
Binder B2 has a Ki of 0.2 nM.
For B3, the Ki was 6.7 nM.
B4 showed a Ki of 10.4 nM.
B5 showed a Ki of 8.2 nM.
B6 showed a Ki of 42.5 nM.
B7 gave a Ki of 7.6 nM.
In the case of B8, the Ki is reported as 18.9 nM.
Work on B9 yielded a Ki of 10.1 nM.
Work on B10 yielded a Ki of 159 nM.
For B11, the Ki was 5.2 nM.
In the case of B12, the Ki is reported as 6.2 nM.
In the case of B13, the Ki is reported as 4 nM.

Biological target: T1, human plasma kallikrein
Test: as above
Remark: another data set of the same source
Method: as §1
Work on B1 yielded a Ki of 6.6 nM.
Work on B14 yielded a Ki of 0.8 nM.
B15 gave a Ki of 3.7 nM.
B6 was tested, and the Ki was 5.3 nM.
B16 gave a Ki of 0.4 nM.
B8 gave a Ki of 3.4 nM.
For B10, the Ki was 36.1 nM.
Binder B11 has a Ki of 4.3 nM.
In the case of B17, the Ki is reported as 1.2 nM.
For B18, the Ki was 2.1 nM.
For Ac-CSFPYRCVYYPDIC-NH2 (linker 1-7-14 via TBMB) [Ac-(06-550)], the Ki was 0.9 nM.
B12 showed a Ki of 20.1 nM.
For B13, the Ki was 0.4 nM.

Biological target: T2, rabbit plasma kallikrein
Test: as above
Remark: another data set of the same source
Method: as §1
B1 gave a Ki of 1460 nM.
B14 gave a Ki of 1450 nM.
B15 gave a Ki of 342 nM.
For B6, the Ki was 280 nM.
With B16 the Ki was 2650 nM.
With B8 the Ki was 342 nM.
B11 showed a Ki of 331 nM.
Work on B17 yielded a Ki of 251 nM.
In the case of B18, the Ki is reported as 207 nM.
Work on Ac-CSFPYRCVYYPDIC-NH2 (linker 1-7-14 via TBMB) [Ac-(06-550)] yielded a Ki of 610 nM.
In the case of B13, the Ki is reported as 1040 nM.

Biological target: T3, rat plasma kallikrein
Test: as above
Remark: another data set of the same source
Method: as §1
In the case of B1, the Ki is reported as 2780 nM.
For B14, the Ki was 2.1 nM.
For B15, the Ki was 7.7 nM.
Work on B6 yielded a Ki of 42.5 nM.
B16 gave a Ki of 8.2 nM.
B8 gave a Ki of 18.9 nM.
For B10, the Ki was 159 nM.
B11 showed a Ki of 5.2 nM.
Work on B17 yielded a Ki of 7.4 nM.
In the case of B18, the Ki is reported as 24 nM.
For Ac-CSFPYRCVYYPDIC-NH2 (linker 1-7-14 via TBMB) [Ac-(06-550)], the Ki was 9.3 nM.
Work on B12 yielded a Ki of 6.2 nM.
B13 gave a Ki of 4 nM.
